From US20240018240A1 (Hoffmann-La Roche, published 2024) come the findings set out here.

Changes are numbered by the printed parent chain.

Sequences and labels used below:
B1: PLAP H3 CD3orig TCB (bispecific antibody, human IgG1, kappa, L234A L235A)
heavy 1: not shown
heavy 2: QVQLQESGPGLVKPSETLSLTCTVSGFSLTSYGVSWIRQPPGKGLEWIGVIWEDGSTNYNPSLKSRVTISVDTSKNQFSLKLSSVTAADTAVYYCARPHYGSSYVGAMEYWGAGTTVTVSSASTKGPSVFPLAPSSKSTSGGTAALGCLVEDYFPEPVTVSWNSGALTSGVHTFPAVLQSSGLYSLSSVVTVPSSSLGTQTYICNVNHKPSNTKVDEKVEPKSCDKTHTCPPCPAPEAAGGPSVFLFPPKPKDTLMISRTPEVTCVVVDVSHEDPEVKFNWYVDGVEVHNAKTKPREEQYNSTYRVVSVLTVLHQDWLNGKEYKCKVSNKALGAPIEKTISKAKGQPREPQVCTLPPSRDELTKNQVSLSCAVKGFYPSDIAVEWESNGQPENNYKTTPPVLDSDGSFFLVSKLTVDKSRWQQGNVFSCSVMHEALHNHYTQKSLSLSP
light 1: DIQMTQSPSSLSASVGDRVTITCRASENIYSYVAWYQQKPGKAPKLLIYNAKSLASGVPSRFSGSGSGTDFTLTISSLQPEDFATYYCQHHYVSPWTFGGGTKLEIKRTVAAPSVFIFPPSDRKLKSGTASVVCLLNNFYPREAKVQWKVDNALQSGNSQESVTEQDSKDSTYSLSSTLTLSKADYEKHKVYACEVTHQGLSSPVTKSFNRGEC
light 2: EVQLLESGGGLVQPGGSLRLSCAASGFTFSTYAMNWVRQAPGKGLEWVSRIRSKYNNYATYYADSVKGRFTISRDDSKNTLYLQMNSLRAEDTAVYYCVRHGNFGNSYVSWFAYWGQGTLVTVSSASVAAPSVFIFPPSDEQLKSGTASVVCLLNNFYPREAKVQWKVDNALQSGNSQESVTEQDSKDSTYSLSSTLTLSKADYEKHKVYACEVTHQGLSSPVTKSFNRGEC
B2: PLAP H2 CD3orig TCB (bispecific antibody, human IgG1, kappa, L234A L235A)
heavy 1: not shown
heavy 2: B1 heavy 2 with P41A, N60H, P61S, S62A, K64I, I69M
light 1: B1 light 1
light 2: B1 light 2
B3: PLAP H3 CD3opt TCB (bispecific antibody, human IgG1, kappa, L234A L235A)
heavy 1: not shown
heavy 2: B1 heavy 2
light 1: B1 light 1
light 2: B1 light 2 with T28Q, T31S, G102T, N103T, G105P, N106S, W111Y, F112Y, A113G
notes: 2+1 IgG CrossFab, inverted
B4: PLAP H4 CD3orig TCB (bispecific antibody, human IgG1, kappa, L234A L235A)
heavy 1: not shown
heavy 2: B1 heavy 2 with F27G, L29I, N60H, P61S, S62A, K64I
light 1: B1 light 1
light 2: B1 light 2
B5: PLAP H2 CD3 P035.093 TCB (bispecific antibody, human IgG1, kappa, L234A L235A)
heavy 1: not shown
heavy 2: B1 heavy 2 with P41A, N60H, P61S, S62A, K64I, I69M
light 1: B1 light 1
light 2: B1 light 2 with T31S, H101A, G102S, G105P, N106A, W111Y
notes: also called PLAP H2 TCB; PLAP (H2) TCB
B6: PLAP H4 CD3 P035.093 TCB (bispecific antibody, human IgG1, kappa, L234A L235A)
heavy 1: not shown
heavy 2: B1 heavy 2 with F27G, L29I, N60H, P61S, S62A, K64I
light 1: B1 light 1
light 2: B1 light 2 with T31S, H101A, G102S, G105P, N106A, W111Y
notes: also called PLAP H4 TCB

The target in the first assay is T1, Human PLAP (soluble, as injected in SPR) (human, UniProt P05187 23-506).
T1 construct: also called PLAP target
T1 sequence (P05187 23-506 limits assumed): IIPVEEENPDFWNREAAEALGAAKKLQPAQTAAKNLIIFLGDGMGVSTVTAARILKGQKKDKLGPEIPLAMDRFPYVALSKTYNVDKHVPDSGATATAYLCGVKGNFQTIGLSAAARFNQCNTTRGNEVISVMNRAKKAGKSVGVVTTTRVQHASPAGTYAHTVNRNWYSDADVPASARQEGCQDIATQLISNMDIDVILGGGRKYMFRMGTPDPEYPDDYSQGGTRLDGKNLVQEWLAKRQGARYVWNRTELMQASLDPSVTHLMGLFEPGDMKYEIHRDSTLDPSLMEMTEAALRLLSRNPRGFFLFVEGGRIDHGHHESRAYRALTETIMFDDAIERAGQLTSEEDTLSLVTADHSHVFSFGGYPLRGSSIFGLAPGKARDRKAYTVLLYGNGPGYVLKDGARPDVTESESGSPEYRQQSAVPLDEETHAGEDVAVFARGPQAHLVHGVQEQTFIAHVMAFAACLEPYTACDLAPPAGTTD
In words: SPR RAC assay (Biacore T200, 25°C); TCB captured by anti-PG antibody on CM3 chip, 100 nM human PLAP injected. How it is done:
(§1) SPR experiments were performed on a Biacore T200 instrument (GE Healthcare). For the immobilization. HBS-N pH 7.4 was used as a running buffer (Cytiva #BR100670). Anti-PG antibody (see Example 3) was immobilized by amine coupling (using amine coupling kit, Cytiva #BR100050) at a density of >6000 RU on a CM3 Chip (Cytiva #29104990). The anti-PG antibody stock solution was diluted to a concentration of 25 μg/mL in a 10 mM sodium acetate buffer of pH 5.0 (Cytiva #BR100351). After the immobilization the analysis was performed at 25° C., and using PBS-P+ (Cytiva #28995084) as a running and a dilution buffer. The 5 nM solutions of TCB molecule samples in PBS-P+ were captured for 30 sec at a flow rate 5 μl/min. Then a 100 nM solution of human PLAP was injected for 90 sec association time and 30 sec dissociation time at a flow rate of 8 μl/min. Thereafter, a 200 nM solution of human CD3ε/δ (see Example 3, SEQ ID NOs 24 and 25) was injected for 90 sec association time and 30 sec dissociation time at a flow rate of 8 μl/min. The regeneration of the surface followed by two 60 sec regeneration steps with a 10 mM NaOH solution. The data were analyzed with the Biacore T200 Evaluation and Excel software. For the calculation of relative active concentration (RAC) the binding report point (BRP) was used. To calculate the RAC, the target and antibody concentrations were referenced to the unstressed sample (−80° C.) as 100% comparison. For the normalization of the protein concentration, reference was made to anti-PG antibody capturing (RAC values).
For the molecule B1, the “RAC [%] PLAP binding, stress A” value is 99%; the “RAC [%] PLAP binding, stress B” value came out at 100%; the “RAC [%] PLAP binding, unstressed” value worked out at 100%.
As for B2, the “RAC [%] PLAP binding, stress A” value is 100%; the “RAC [%] PLAP binding, stress B” value is 102%; the “RAC [%] PLAP binding, unstressed” value stood at 100%.
For B3, the “RAC [%] PLAP binding, stress A” value came out at 100%; the “RAC [%] PLAP binding, stress B” value amounted to 101%; the “RAC [%] PLAP binding, unstressed” value was found to be 100%.
Regarding B4, the “RAC [%] PLAP binding, stress A” value was found to be 99%; the “RAC [%] PLAP binding, stress B” value was found to be 103%; the “RAC [%] PLAP binding, unstressed” value was found to be 100%.

Another assay deals with human PLAP (ALPP) expressed on CHO-K1 cells (human, UniProt P05187 23-506). As to the kind of experiment: cell-based or functional assay.
human PLAP (ALPP) expressed on CHO-K1 cells, sequence (P05187 23-506): as the sequence (P05187 23-506 limits assumed) above
For B5, the “EC50 (pM), Jurkat NFAT reporter assay (luminescence, 6 h)” value (“EC50 (pM), Jurkat NFAT reporter assay” below) was 21 pM.
On the same count and under the same terms, for B6 the value was 36 pM.

In another assay the target is human ALPG (ALPPL2) expressed on CHO-K1 cells (human, UniProt P10696 20-503). In words: cell-based or functional assay.
B5: the “EC50 (pM), Jurkat NFAT reporter assay” value worked out at 22 pM.
As to B6, the “EC50 (pM), Jurkat NFAT reporter assay” value was determined as 34 pM.

A further assay deals with T2, Human CD3ε stalk-Fc(knob)-Avi/CD3δ stalk-Fc(hole) (human).
T2 construct: Heterodimer of CD3 delta and CD3 epsilon ectodomains fused to a human Fc domain with knob-into-hole modifications and C-terminal Avi-tag; also called human CD3ε/δ; CD3ε/δ
In words: SPR single cycle kinetics (Biacore T200, 25°C); TCB captured by anti-PG antibody on CM3 chip, human CD3ε/δ as analyte. How it is done:
(§2) The binding kinetics of the PLAP TCB molecules generated in Example 17 were characterized by the single cycle kinetic (SSK) assay. For this assay, again the SPR Biacore T200 was used. The immobilization was performed at 25° C. with HBS-N pH 7.4 as a running buffer (Cytiva #BR100670). The anti-PG antibody (see Example 3) was immobilized by amine coupling (using amine coupling kit, Cytiva #BR100050) at a density of >5000 RU on a CM3 Chip (Cytiva #29104990). The anti-PG antibody stock solution was diluted to a concentration of 25 μg/mL in a 10 mM sodium acetate buffer of pH 5.0 (Cytiva #BR100351). After the immobilization the analysis was performed at 25° C., and PBS-P+(Cytiva #28995084) was used as a running and a dilution buffer. The 3 nM solutions of TCB molecule samples in PBS-P+ were captured with anti-PG antibody on a CM3 sensor chip.
(§3) The derived kinetic rate constants and corresponding affinity values (equilibrium dissociation constant KD) are summarized in Table 26 for the CD3 binder and in Table 27 for the PLAP binder. The data were analyzed with the Biacore T200 Evaluation and Excel software.
For orientation: Surface plasmon resonance follows binding to a sensor surface in real time, without labels.
For orientation: Kd means the constant that tells how readily two partners part at equilibrium. A higher Kd goes with a looser complex. Broadly, the koff is the first-order rate constant of dissociation. Read a high koff as fast dissociation. In general, kon refers to the second-order rate constant of association. In turn, B1 showed a Kd of 6.3 nM, a koff of 0.00167 s⁻¹ and a kon of 267000 M⁻¹ s⁻¹.
The matching figures for B2: 6.3 nM, 0.0017 s⁻¹ and 269000 M⁻¹ s⁻¹.
The matching figures for B3: 2.8 nM, 0.0136 s⁻¹ and 4.79e+06 M⁻¹ s⁻¹.
The matching figures for B4: 5.7 nM, 0.00167 s⁻¹ and 292000 M⁻¹ s⁻¹.

The target in a further assay is T1, Human PLAP (soluble, as injected in SPR). As to the kind of experiment: SPR single cycle kinetics (Biacore T200, 25°C); TCB captured by anti-PG antibody on CM3 chip, human PLAP as analyte. How it is done:
as §2, §3
Molecule B1 showed a Kd of 0.009 nM, a koff of 3.87e-05 s⁻¹ and a kon of 4.32e+06 M⁻¹ s⁻¹.
The matching figures for B2: 0.0181 nM, 4.45e-05 s⁻¹ and 2.46e+06 M⁻¹ s⁻¹.
The matching figures for B3: 0.0097 nM, 3.99e-05 s⁻¹ and 4.12e+06 M⁻¹ s⁻¹.
B4 showed a Kd of 0.0496 nM, a koff of 8.91e-05 s⁻¹ and a kon of 1.8e+06 M⁻¹ s⁻¹.

A further assay concerns the target T2, Human CD3ε stalk-Fc(knob)-Avi/CD3δ …. In words: SPR (Biacore T200, 25°C); TCB captured by anti-PG antibody on CM5 chip, 300 nM human CD3ε/δ injected; relative active concentration. How it is done:
SPR experiments were performed on a Biacore T200 instrument (GE Healthcare) at 25° C. with HBS-P+(10 mM HEPES, 150 mM NaCl pH 7.4, 0.05% Surfactant P20) as running and dilution buffer. Anti-PG antibody (see Example 3) was immobilized by amine coupling (using amine coupling kit, Cytiva #BR100050) at a density of >6000 RU on a CM5 Chip (Sensor Chip CM5, Cytiva #29104988). The 10 nM solutions of TCB molecule samples in HBS-P+ were captured for 30 sec at a flow rate 10 μl/min. Then a 300 nM solution of human CD3ε/δ (see Example 3, SEQ ID NOs 24 and 25) was injected for 150 sec association time and 120 sec dissociation time at a flow rate of 10 μl/min. The regeneration of the surface followed by a 35 sec regeneration step with a 20 mM NaOH solution. The data were analyzed with the Biacore T200 Evaluation and Excel software. For the calculation of relative active concentration (RAC) the binding report point (BRP) was used (the BRP is a standard readout point in SPR, maximum response (unit/value) of interaction between antigen and antibody).
As for B5, the “RAC % of CD3 binding, stress A” value was 100%; the “RAC % of CD3 binding, stress B” value was 96%; the “RAC % of CD3 binding, unstressed” value is 100%.
For the molecule B6, the “RAC % of CD3 binding, stress A” value is 100%; the “RAC % of CD3 binding, stress B” value was 98%; the “RAC % of CD3 binding, unstressed” value was found to be 100%.

For the next assay the target is unchanged. As to the kind of experiment: SPR RAC assay (Biacore T200, 25°C); TCB captured by anti-PG antibody on CM3 chip, 200 nM human CD3ε/δ injected after 100 nM human PLAP. Here is the method:
as §1
On to B1, for which the “RAC [%] CD3 binding, stress A” value is 97%; the “RAC [%] CD3 binding, stress B” value is 82%; the “RAC [%] CD3 binding, unstressed” value came to 100%.
Regarding B2, the “RAC [%] CD3 binding, stress A” value is 96%; the “RAC [%] CD3 binding, stress B” value amounted to 81%; the “RAC [%] CD3 binding, unstressed” value stood at 100%.
The matching figures for B3: 98%, 95% and 100%.
The matching figures for B4: 97%, 78% and 100%.
